In assay [1] the target is T1, Cyno DV1/GV77 antigen, recombinant cynomolgus Vδ1 heterodimer (cynomolgus monkey).
T1 construct: also called cyno TRDV1; Cyno DV1-77; not shown: delta CDR3/J, TCR constant region, zipper and tag; the whole gamma chain GV77
Nature of the assay: SPR, captured IgG, cyno DV1-GV77 flown over. (In SPR one partner is held on a chip, and binding of the other changes the refractive index at the surface.)

Assay [2] has as its target T2, L1 (DV1-GV4), soluble human Vδ1/Vγ4 γδ TCR heterodimer in leucine zipper format (human).
T2 construct: Biotinylated in the DELFIA ranking; also called Antigen L1 (TRDV1/TRGV4); human DV1-GV4; not shown: gamma chain: Vγ4 (TRGV4) domain on a TCR constant region, leucine zipper, histidine tag
Nature of the assay: SPR, captured IgG, human DV1-GV4 flown over.

Assay [3] addresses T1, Cyno DV1/GV77 antigen, recombinant …. Nature of the assay: DELFIA ELISA, cyno antigen; heat map cell of the clone. For orientation: ELISA stands for enzyme-linked immunosorbent assay.
The target of assay [4] is T2, L1 (DV1-GV4), soluble human Vδ1/Vγ4 γδ …. Description: DELFIA ELISA, 0.4 nM human TRDV1 antigen; heat map cell of the clone.

T1 sequence (delta, as listed by the source limits assumed): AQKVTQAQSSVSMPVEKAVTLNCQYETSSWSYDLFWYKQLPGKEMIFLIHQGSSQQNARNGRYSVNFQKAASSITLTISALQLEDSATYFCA
T2 sequence (main, as listed by the source): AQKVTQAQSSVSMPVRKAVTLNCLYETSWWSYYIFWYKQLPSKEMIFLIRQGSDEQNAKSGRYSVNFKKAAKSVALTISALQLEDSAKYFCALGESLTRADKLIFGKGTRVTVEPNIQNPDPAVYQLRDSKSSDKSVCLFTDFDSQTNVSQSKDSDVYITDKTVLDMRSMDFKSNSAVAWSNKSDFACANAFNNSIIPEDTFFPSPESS

B1: ADT1-4-8 (antibody, V domains shown)
VH: EVQLQQSGPGLVKPSQTLSLTCAISGDSVSSKSAAWNWIRQSPSRGLEWLGRTYYRSKWSTDYAASVKSRITINPDTSKNQLSLQLNSVTPEDTAVYYCARTWVGYADVWGQGTLVTVSS
VL: DIQMTQSPPALSASVGDRVTITCRASQDINDWLAWYQHKPGKAPKLLIYDASSLESGVPLRFSGSGSGTEFTLTISSLQPDDFATYYCQQKYSAPQVTFGQGTRLEIK
For the molecule B1, the Kd in assay [1] was 15.1 nM; in assay [2], 0.541 nM. Besides, the results for the “ELISA signal (heat map)” value in assay [3] and in assay [4] were 139000 and 42700, respectively.

Broadly, the Kd is the concentration at which binding is half-saturated.

These data come from US20230028110A1 (ADAPTATE BIOTHERAPEUTICS, published 2023).
